Source: PMC4174873

Target: CTBMPR (not stated | Human immunodeficiency virus 1 (HIV-1)) (UniProt P01556)
Assay: SEC

CTBMPR (from UniProt P01556 22-124)
stoichiometry N: 5
